Patent US20260242485A1 (LEPU BIOPHARMA, published 2026)
One block for each binder: values may come before it.

Columns and labels:
[1] = target: T1, human CD16A-158F expressed on CHO-K1 cells (human, UniProt P08637 17-254); assay: flow cytometry, CHO-K1-hCD16A-158F cells, geometric mean
T1 construct: whole, on cells
Excerpt: (§1) The purpose of the assay was to evaluate the binding of BsAb to each of the hFcγRs.

[2] = target: T2, human CD16A-158V expressed on CHO-K1 cells (human, UniProt P08637 17-254); assay: flow cytometry, CHO-K1-hCD16A-158V cells, geometric mean
T2 construct: whole, on cells; also called hCD16A-158V; CHO-K1-hCD16A-158V
T2 sequence (P08637 17-254 F176V): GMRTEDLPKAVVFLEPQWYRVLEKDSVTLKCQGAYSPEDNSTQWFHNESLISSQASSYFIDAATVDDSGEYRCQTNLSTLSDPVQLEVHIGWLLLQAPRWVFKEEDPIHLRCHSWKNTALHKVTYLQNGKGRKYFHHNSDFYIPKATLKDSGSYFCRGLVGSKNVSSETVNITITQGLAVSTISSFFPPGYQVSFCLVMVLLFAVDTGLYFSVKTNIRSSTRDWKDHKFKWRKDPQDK
Excerpt: as §1

[3] = target: T3, human GPC3 on HepG2 cells (human, UniProt P51654 25-554); assay: flow cytometry, HepG2 cells (GPC3 positive), geometric mean
T3 construct: whole, on cells; also called GPC3-positive HepG2 cells
T3 sequence (P51654 25-554 limits assumed): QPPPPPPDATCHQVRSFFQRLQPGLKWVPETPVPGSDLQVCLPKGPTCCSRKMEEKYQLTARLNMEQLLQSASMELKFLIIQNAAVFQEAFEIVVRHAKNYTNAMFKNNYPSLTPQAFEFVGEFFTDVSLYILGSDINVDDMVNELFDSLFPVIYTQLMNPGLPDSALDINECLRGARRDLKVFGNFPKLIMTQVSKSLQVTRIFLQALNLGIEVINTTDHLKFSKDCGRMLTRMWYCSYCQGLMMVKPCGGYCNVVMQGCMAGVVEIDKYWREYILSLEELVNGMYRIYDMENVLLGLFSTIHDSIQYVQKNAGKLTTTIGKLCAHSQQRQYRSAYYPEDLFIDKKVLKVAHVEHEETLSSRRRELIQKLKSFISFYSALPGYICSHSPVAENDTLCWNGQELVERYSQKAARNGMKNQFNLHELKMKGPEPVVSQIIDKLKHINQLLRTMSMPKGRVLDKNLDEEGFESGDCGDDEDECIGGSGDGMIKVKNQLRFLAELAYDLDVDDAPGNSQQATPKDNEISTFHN

[4] = target: T1, human CD16A-158F expressed on CHO-K1 …; assay: flow cytometry, CHO-K1-hCD16A-158F cells, geometric mean; remark: listed apart in the source
[5] = target: T1, human CD16A-158F expressed on CHO-K1 …; assay: as above; remark: listed apart in the source
Experimental: (§2) In order to evaluate the binding activity of the chimeric mAbs to human CD16A expressed on cells, cell-based binding assay was employed as followed. […] The antibody dilutions were incubated with 1×10⁵ indicated cells in the 96-well microplate for one hour at 4° C. The antibodies binding to the antigen on the cell surface were detected with PE fluorophore-conjugated anti-human IgG Fc secondary antibodies (ThermoFisher scientific, Cat. No. 12-4998-82) at a dilution rate of 1:1000. Cells were analyzed by flow cytometer LSRFortessa Cell Analyzer (BD Biosciences). Data were analyzed with Flowjo 10.0 software. The graph and statistics analysis were generated with four-parameter nonlinear regression curve fit in Graphpad Prism 9 software.
(§3) The assay was performed following the protocol described above.

[6] = target: T4, cynomolgus CD16 expressed on CHO-K1 cells (cynomolgus, UniProt Q8SPW2 17-254); assay: flow cytometry, CHO-K1-cyno CD16 cells, Alexa Fluor 647 anti-human IgG Fc, geometric mean
T4 construct: whole, on cells; also called cyno CD16; CHO-K1-cynoCD16
T4 sequence (Q8SPW2 17-254): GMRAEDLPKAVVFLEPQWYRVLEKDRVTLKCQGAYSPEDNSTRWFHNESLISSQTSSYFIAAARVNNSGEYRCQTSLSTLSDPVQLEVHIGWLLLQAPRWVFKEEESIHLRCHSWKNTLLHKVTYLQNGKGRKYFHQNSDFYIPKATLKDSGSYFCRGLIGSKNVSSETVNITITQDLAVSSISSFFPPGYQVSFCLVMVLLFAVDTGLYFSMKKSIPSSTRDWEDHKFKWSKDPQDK
Experimental: as §2
(§4) The assay was performed following the protocol described above. The antibodies binding to the antigen on the cell surface were detected with Alexa Fluor® 647 AffiniPure™ F(ab′)₂ fragment goat anti-human IgG Fcγ fragment specific secondary antibody (Jackson Immuno Research, Cat. No. 109-606-098) at a dilution rate of 1:2000.

[7] = target: T1, human CD16A-158F expressed on CHO-K1 …; assay: flow cytometry, CHO-K1-hCD16A-158F cells, Alexa Fluor 647 anti-human IgG Fc, geometric mean
Experimental: as §2, §4

[8] = target: T2, human CD16A-158V expressed on CHO-K1 …; assay: flow cytometry, CHO-K1-hCD16A-158V cells, geometric mean; remark: listed apart in the source
Experimental: as §2, §3

[9] = target: T2, human CD16A-158V expressed on CHO-K1 …; assay: flow cytometry, CHO-K1-hCD16A-158V cells, Alexa Fluor 647 anti-human IgG Fc, geometric mean
Experimental: as §2, §4

[10] = target: T4, cynomolgus CD16 expressed on CHO-K1 …; assay: flow cytometry, CHO-K1-cyno CD16 cells, geometric mean
Experimental: as §2, §3

T1 sequence (P08637 17-254): as the sequence (P08637 17-254 F176V) above, with V160F counted along it

B1: CCR8-hIgG1 mAb (antibody)
VH: not shown
VL: DIVMTQSPLSLPVTPGEPASISCRSSKSLLHSNANTYLYWYLQKPGQSPQLLIYRMSNLASGVPDRFSGSGSGTAFTLKISRVEAEDVGVYYCMQHLEYPFTFGGGTKLEIKRTVAAPSVFIFPPSDEQLKSGTASVVCLLNNFYPREAKVQWKVDNALQSGNSQESVTEQDSKDSTYSLSSTLTLSKADYEKHKVYACEVTHQGLSSPVTKSFNRGEC
notes: Wildtype human IgG1; also called anti-hCCR8 monoclonal antibody with wildtype Fc hIgG1
- EC50 [1]: 20 nM
- EC50 [2]: 5.2 nM

B2: CCR8-45H6E8-hIgG1LALAPG (bispecific antibody)
heavy: EVQLVESGGGLVQPGGSLRLSCAASGFSFNTYVMNWVRQAPGKGLEWVARIRTKSNNYATFYVDSVKDRFTISRDDSKNSLYLQMNSLKTEDTAVYYCVSGTITRLGAGLDYWGQGTLVTVSSASTKGPSVFPLAPSSKSTSGGTAALGCLVKDYFPEPVTVSWNSGALTSGVHTFPAVLQSSGLYSLSSVVTVPSSSLGTQTYICNVNHKPSNTKVDKKVEPKSCDKTHTCPPCPAPEAAGGPSVFLFPPKPKDTLMISRTPEVTCVVVDVSHEDPEVKFNWYVDGVEVHNAKTKPREEQYNSTYRVVSVLTVLHQDWLNGKEYKCKVSNKALGAPIEKTISKAKGQPREPQVYTLPPSREEMTKNQVSLTCLVKGFYPSDIAVEWESNGQPENNYKTTPPVLDSDGSFFLYSKLTVDKSRWQQGNVFSCSVMHEALHNHYTQKSLSLSPGKGGGGSGGGGSGGGGSEVQLQQSGAELVRSGASVKLSCTASGFNIKDYYMQWVKQRPEQGLEWIGWIDPENGDTEYAPKFQGKATMTADTSSNTAYLQLSSLTSEDTAVYYCTTGGNYVDWGQGTTLTVSSGGGGSGGGGSGGGGSDIVMTQSQKFMSTSVGDRVSITCKASQNVGTAVAWYQQKPGQSPKLLIYSASNRYTGVPDRFTGSGSGTDFTLTISNMQSEDLADYFCQQYSSYPLLTFGAGTNLELK
light: DIVMTQSPLSLPVTPGEPASISCRSSKSLLHSNANTYLYWYLQKPGQSPQLLIYRMSNLASGVPDRFSGSGSGTAFTLKISRVEAEDVGVYYCMQHLEYPFTFGGGTKLEIKRTVAAPSVFIFPPSDEQLKSGTASVVCLLNNFYPREAKVQWKVDNALQSGNSQESVTEQDSKDSTYSLSSTLTLSKADYEKHKVYACEVTHQGLSSPVTKSFNRGEC
notes: to be checked; also called CCR8-45H6E8-hIgG1LALAPG BsAb; CCR8-45H6E8 LALAPG BsAb
- EC50 [1]: 0.29 nM
- EC50 [2]: 0.57 nM

B3: GPC3-hIgG1DE (antibody)
chain 1: not shown
chain 2: DIVMTQTPLSLSVTPGQPASISCRSSQSLVHSNGNTYLQWYLQKPGQSPQLLIYKVSNRFSGVPDRFSGSGSGTDFTLKISRVEAEDVGVYYCFQSIHVPYTFGGGTKLEIKRTVAAPSVFIFPPSDEQLKSGTASVVCLLNNFYPREAKVQWKVDNALQSGNSQESVTEQDSKDSTYSLSSTLTLSKADYEKHKVYACEVTHQGLSSPVTKSFNRGEC
- EC50 (read off the curve) [3]: ~0.3 nM

B5: 45H6E8-z21 (antibody, human IgG1, V domains shown)
VH: QVQLVQSGAEVKKPGASVKVSCKVSGYTLTDYYMQWVRQAPGKGLEWMGWIDPENGDTEYAPKFQGRVTMTADTSTDTAYMELSSLRSEDTAVYYCTTGGNYVDWGQGTTVTVSS
VL: DIQMTQSPSFLSASVGDRVTITCKASQNVGTAVAWYQQKPGKAPKLLIYSASNRYTGVPDRFSGSGSGTDFTLTISSLQPEDFATYFCQQYSSYPLLTFGQGTRLEIK
notes: Human IgG1 LALAPG constant region; also called HU-VH1-8 / HU-VL1-3
- EC50 (read off the curve) [5]: ~0.4 nM
- EC50 (read off the curve) [6]: ~1 nM
- EC50 (read off the curve) [7]: ~0.4 nM
- EC50 (read off the curve) [8]: ~0.4 nM
- EC50 (read off the curve) [9]: ~0.4 nM
- EC50 (read off the curve) [10]: ~0.7 nM

The remaining lines, values ahead:

- binding result [4]: no binding (tested: 100 nM)
- EC50 (read off the curve) [3]: ~0.3 nM
B4: GPC3-hIgG1 (antibody)
heavy: not shown
light: DIVMTQTPLSLSVTPGQPASISCRSSQSLVHSNGNTYLQWYLQKPGQSPQLLIYKVSNRFSGVPDRFSGSGSGTDFTLKISRVEAEDVGVYYCFQSIHVPYTFGGGTKLEIKRTVAAPSVFIFPPSDEQLKSGTASVVCLLNNFYPREAKVQWKVDNALQSGNSQESVTEQDSKDSTYSLSSTLTLSKADYEKHKVYACEVTHQGLSSPVTKSFNRGEC
notes: also called GPC3-hIgG1 mAb with wild-type Fc region

- binding result [3]: no binding (tested: 100 nM)
B6: 45H6E8-z21p1 (antibody, V domains shown)
VH: QVQLVQSGAEVKKPGASVKVSCKVSGYTLTDYYMQWVRQAPGKGLEWMGWIDPEQGDTEYAPKFQGRVTMTADTSTDTAYMELSSLRSEDTAVYYCTTGGNYVDWGQGTTVTVSS
VL: DIQMTQSPSFLSASVGDRVTITCKASQNVGTAVAWYQQKPGKAPKLLIYSASNRYTGVPDRFSGSGSGTDFTLTISSLQPEDFATYFCQQYSSYPLLTFGQGTRLEIK
notes: PTM-removed version of z21
